Source: patent publication US20110305670A1

Legend:
[1] = biological target: envelope glycoprotein of the R5X4 isolate 89.6, on virus (HIV-1 (89.6 isolate)) (UniProt Q73372); experiment: cell-based or functional assay
[2] = biological target: envelope glycoprotein of the R5 isolate YU2, on virus (HIV-1 (YU2 isolate)) (UniProt P35961); experiment: cell-based or functional assay
Chain of UniProt P35961 (P35961 32-843): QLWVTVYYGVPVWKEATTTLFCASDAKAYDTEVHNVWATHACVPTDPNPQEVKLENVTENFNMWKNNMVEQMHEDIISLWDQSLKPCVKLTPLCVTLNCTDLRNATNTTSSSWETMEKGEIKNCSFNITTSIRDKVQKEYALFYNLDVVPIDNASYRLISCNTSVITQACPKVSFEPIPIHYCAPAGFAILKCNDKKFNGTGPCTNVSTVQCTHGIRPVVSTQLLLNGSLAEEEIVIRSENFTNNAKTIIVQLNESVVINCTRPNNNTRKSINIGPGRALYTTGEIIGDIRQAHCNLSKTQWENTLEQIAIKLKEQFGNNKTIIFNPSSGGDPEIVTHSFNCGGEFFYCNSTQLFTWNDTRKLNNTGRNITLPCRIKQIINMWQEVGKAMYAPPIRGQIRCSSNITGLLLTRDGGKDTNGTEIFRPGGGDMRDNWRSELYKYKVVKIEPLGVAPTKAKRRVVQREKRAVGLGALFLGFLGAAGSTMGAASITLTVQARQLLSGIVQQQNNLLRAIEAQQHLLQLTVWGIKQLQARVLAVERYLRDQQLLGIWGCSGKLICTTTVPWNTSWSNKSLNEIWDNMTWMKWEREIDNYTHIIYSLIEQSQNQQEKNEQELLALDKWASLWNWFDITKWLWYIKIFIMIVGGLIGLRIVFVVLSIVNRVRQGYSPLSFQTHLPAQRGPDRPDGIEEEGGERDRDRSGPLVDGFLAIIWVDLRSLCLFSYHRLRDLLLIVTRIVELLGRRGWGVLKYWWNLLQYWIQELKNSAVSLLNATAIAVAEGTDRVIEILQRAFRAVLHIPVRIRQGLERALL

## eCD4-Ig (from UniProt P01730 26-203) (Fc fusion)
[1]
  IC50 difference between CD4-Ig and eCD4-Ig (fold): 50 fold
  neutralization of GFP-expressing HIV-1, IC50: 600 pM
[2]
  IC50 difference between CD4-Ig and eCD4-Ig (fold): 3 fold
  neutralization of GFP-expressing HIV-1, IC50: 2 nM
